Experimental data from paper PMC12143593.

Key:
[1] = target: EPE chimera (EcSSB with PfSSB IDL) (Escherichia coli / Plasmodium falciparum (IDL)) (UniProt P0AGE0); assay: fluorescence polarization; conditions: 20 mM Tris-acetate pH 8, 50 mM K-glutamate, 10 mM Mg-acetate, 25 C; 10 nM labeled oligo, SSB concentrations as tetramers
[2] = target: EHE chimera (EcSSB with hSSB1 IDL) (Escherichia coli / human (IDL)) (UniProt P0AGE0); assay: fluorescence polarization; conditions: 20 mM Tris-acetate pH 8, 50 mM K-glutamate, 10 mM Mg-acetate, 25 C, 10 nM labeled oligo, SSB concentrations as tetramers
RecQ helicase = RecQ helicase (UniProt P15043); assay: fluorescence polarisation; competitive: RecQ–flCTP mixture (0.65 uM RecQ, 25 nM flCTP) titrated with EcSSB constructs (tetramer concentrations); 25°C; 20 mM Tris–acetate pH 8, 50 mM K-glutamate, 10 mM Mg-acetate; competitive binding scheme
RecQ helicase, sequence (P15043 whole entry, the tested form may be a part): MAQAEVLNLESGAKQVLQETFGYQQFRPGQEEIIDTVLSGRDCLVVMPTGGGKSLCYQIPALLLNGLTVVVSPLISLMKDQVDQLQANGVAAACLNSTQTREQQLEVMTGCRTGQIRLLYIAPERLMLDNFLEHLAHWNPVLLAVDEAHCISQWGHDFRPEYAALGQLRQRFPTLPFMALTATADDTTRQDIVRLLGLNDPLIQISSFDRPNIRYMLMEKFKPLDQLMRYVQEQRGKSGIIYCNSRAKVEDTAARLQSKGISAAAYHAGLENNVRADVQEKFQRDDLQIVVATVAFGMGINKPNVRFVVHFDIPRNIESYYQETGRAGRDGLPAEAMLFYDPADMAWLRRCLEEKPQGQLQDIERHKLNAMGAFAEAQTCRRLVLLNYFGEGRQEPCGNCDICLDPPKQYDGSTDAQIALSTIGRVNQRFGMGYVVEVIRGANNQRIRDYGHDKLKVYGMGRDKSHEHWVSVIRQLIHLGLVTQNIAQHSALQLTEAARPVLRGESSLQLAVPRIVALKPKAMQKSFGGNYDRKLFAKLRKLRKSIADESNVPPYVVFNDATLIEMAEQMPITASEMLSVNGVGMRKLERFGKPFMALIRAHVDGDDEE

[3] = target: EcSSB dC (construct lacking the CTP, aa 1-170) (Escherichia coli) (UniProt P0AGE0); assay: fluorescence polarisation; competitive: dC (2.5 uM tetramer) complexed with 25 nM flCTP, titrated with EcSSB constructs (tetramer concentrations); 25°C; 20 mM Tris–acetate pH 8, 50 mM K-glutamate, 10 mM Mg-acetate; competitive binding scheme
[4] = target: EcSSB d1G internal_change (Escherichia coli) (UniProt P0AGE0); assay: fluorescence polarization; conditions: n = 1.9 to 2.3 range; here 2.3; 20 mM Tris-acetate pH 8, 50 mM K-glutamate, 10 mM Mg-acetate, 25 C; 10 nM labeled oligo, SSB concentrations as tetramers
[5] = target: EcSSB R116D-W136D R116D;W136D (Escherichia coli) (UniProt P0AGE0); assay: fluorescence polarization; conditions: n = 2; 20 mM Tris-acetate pH 8, 50 mM K-glutamate, 10 mM Mg-acetate, 25 C; 10 nM labeled oligo, SSB concentrations as tetramers
[6] = target: EcSSB W136D W136D (Escherichia coli) (UniProt P0AGE0); assay: fluorescence polarization; conditions: n = 2; 20 mM Tris-acetate pH 8, 50 mM K-glutamate, 10 mM Mg-acetate, 25 C; 10 nM labeled oligo, SSB concentrations as tetramers
[7] = target: EcSSB WT (Escherichia coli) (UniProt P0AGE0); assay: fluorescence polarization; conditions: n = 1.9 tetramer per oligo; 20 mM Tris-acetate pH 8, 50 mM K-glutamate, 10 mM Mg-acetate, 25 C; 10 nM labeled oligo, SSB concentrations as tetramers
[8] = target: EcSSB d2G internal_change (Escherichia coli) (UniProt P0AGE0); assay: fluorescence polarization; conditions: n = 2.8; 20 mM Tris-acetate pH 8, 50 mM K-glutamate, 10 mM Mg-acetate, 25 C; 10 nM labeled oligo, SSB concentrations as tetramers

“TTTTTTTTTTTTTTTTTTTTTTTTTTTTTTTTTTTTTTTTTTTTTTTTTTTTTTTTTTTTTTTTTTTTTTTTTTTTTTT [dT79]” was tested, and the Kd [1] was < 10 nM and the Kd ([2]; n = 2.3) was < 10 nM.

In the case of “EPE chimeric construct (EcSSB OB domain, IDL of Plasmodium falciparum SSB, EcSSB CTP) (from UniProt P0AGE0;Q8I415)”, the Kd (RecQ helicase) is reported as < 10 nM and the Kd [3] is reported as 57 nM.

Substance ssDNA36 has a Kd [4] of 89 nM, a Kd [1] of 84 nM and a Kd [5] of 21 nM. It also gave a Kd ([2]; n = 2.1) of 96 nM, a Kd [6] of 16 nM and a Kd [7] of 32 nM. For the same substance, the Kd [8] was 46 nM.

Work on “EcSSB GG construct (entire IDL except the CTP eliminated) (from UniProt P0AGE0 1-113) (natural protein)” yielded a Kd [3] of 97 nM.
